Assay results taken from paper PMC12732409.

Target: hyaluronidase from bovine testes (bovine)

NGT-M002 (pvFP-5; Perna viridis foot protein-5) (natural protein)
hyaluronidase inhibition rate (enzyme activity on hyaluronic acid, absorbance at 600 nm) at 500 μM sample, 1 U/mL hyaluronidase: 91%
